In assay [1] the target is Drosophila melanogaster scavenger receptor type CI (Drosophila melanogaster).
Assay [2] concerns the target hamster scavenger receptor type BI (hamster). Nature of the assay: ^125I-AcLDL (5 µg/ml) binding at 4° C. to ldlA[haSR-BI] cells, no competitor.

Turning to Poly D-glutamic acid (peptide), the ^125I-AcLDL Degradation (% No Competitor) (% No Competitor) in assay [1] amounted to 34.
In turn, acetylated low density lipoprotein registered a 125I-AcLDL binding (ng/mg cell protein) in assay [2] of 293. This substance also returned a ^125I-AcLDL Degradation (% No Competitor) (% No Competitor) in assay [1] of 4.8.
low density lipoprotein registered a ^125I-AcLDL Degradation (% No Competitor) (% No Competitor) in assay [1] of 97.6.
